Measured values taken from patent US12072338B2, “Pharmaceutical peptides for the treatment of inflammatory diseases” (PROTAGONISTS LTD., priority 2007, dated 2024).

Columns and labels:
RANTES = target: T1, RANTES (Homo sapiens, UniProt P13501); experiment: Micro-array analysis of chemokine binding peptides: RANTES
T1 construct: purchased 300-06
T1 sequence (P13501 24-91): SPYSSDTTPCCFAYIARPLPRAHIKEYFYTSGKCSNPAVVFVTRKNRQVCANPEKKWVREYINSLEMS
Protocol: (§1) (1) Printing: Chemokine (CK) solution (in water) was serially diluted with Print Reagent (GenTel BioSurfaces USA) to final concentrations of 50 μg and 25 μg/ml. BSA/BSA-Biotin control solutions (in water) were diluted with Print Reagent to 100 μg/ml. Amplified stock of M13 phage control (M13KEgIII Cloning Vector, New England Biolabs, Cat.No.E8101S) was stored in Tris Buffered Saline (TBS; pH7.5, 4° C.) and diluted with Print Reagent to the working titre (10^8 pfu/μl). An automated spotting robot (16 pin print tool, 0.4 mm head; BioRobotics, UK) was used to print the CK/BSA control/M13 control, 5 repeats per sample (CK 25 μg/ml and 50 μg/ml; BSA 100 μg/ml; M13 20 μl), on PATH Protein Microarray Slides (GenTel, Prod.No. 2-1005/-1025) at […], and 50-70% relative humidity. Printed micro-array slides were stored at Room Temperature (RT) or 4° C. for at least 24 h before use.
(§2) (2) Blocking: Block Buffer (500 μl/partition; PATHblock, GenTel, Prod.No. 2-1014) was applied to the slide for 1 hour at room temp (RT). After removal of Block Buffer, the slide was air dried for 25 minutes;
(§3) (3) Phage Presented Peptide Binding: Amplified recombinant phage stock was stored in TBS and diluted with Wash Buffer to working titer (10^7 pfu/μl). Recombinant phage suspension (300 μl) was applied per partition and incubated at RT for 1 hour with gentle agitation.
(§4) (4) First Washing: The slides were washed twice with Wash Buffer 300 μl/partition).
(§5) (5) Primary Antibody (Ab) Labeling: The slides were incubated with the Primary Ab (1 mg/ml diluted ×2500 (Wash Reagent), 300 μl; Mouse Anti-M13 monoclonal Ab; Amersham Biosciences, UK; Product Code 27-9420-01) for 45 minutes at RT.
(§6) (6) Second Washing: The slides were washed twice with Wash Buffer (300 μl/partition).
(§7) (7) Secondary Ab Labeling: The slides were incubated with Secondary Ab (1.5 mg/ml diluted ×5000 (Wash Reagent), 300 μl; Cy3-conjugated AffiniPure Goat Anti-Mouse IgG; Jackson ImmunoReserch Labs, USA; Product Code 115-165-062).
(§8) (8) Third Washing: The slides were washed twice with Wash Buffer (300 μl/partition).
(§9) (9) Rinse: the slides were rinsed twice with Rinse Buffer (PATHrinse, GenTel, Prod.No. 2-1018) then dried well.
(§10) (10) Scanning: The peptide-bound, labeled slide was scanned (Laser Intensity 80%, Gain 80%, Resolution 10 μm) with a ScanArray Life Scanner (Packard BioChip Technologies, USA).
(§11) (11) Analysis: Quantitative analysis of micro-array was performed by the SpotReader program of Niles Scientific (USA) and presented as Relative Fluorescence (RF) as a function of CK concentration. Micro-array readout (Cy3 fluorescence) was quantified to determine the relative binding affinities of a CBP for the CKs and by inference, the specificity of the CBP for binding to a CK.

TECK = target: T2, TECK (Homo sapiens, UniProt O15444); experiment: Micro-array analysis of chemokine binding peptides: TECK
T2 construct: purchased 300-45
T2 sequence (O15444 24-150): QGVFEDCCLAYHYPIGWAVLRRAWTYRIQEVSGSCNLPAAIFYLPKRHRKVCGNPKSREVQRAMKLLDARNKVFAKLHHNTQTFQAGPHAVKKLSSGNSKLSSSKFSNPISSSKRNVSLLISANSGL
Protocol: as §1, §2, §3, §4, §5, §6, §7, §8, §9, §10, §11

MCP-4 = target: T3, MCP-4 (Homo sapiens, UniProt Q99616); experiment: Micro-array analysis of chemokine binding peptides: MCP-4; conditions: limit = start of the upper 75% of that peptide's response range
T3 construct: purchased 300-24
Protocol: as §1, §2, §3, §4, §5, §6, §7, §8, §9, §10, §11

MCP-1 = target: T4, MCP-1 (Homo sapiens, UniProt P13500); experiment: Micro-array analysis of chemokine binding peptides: MCP-1; conditions: limit = start of the upper 75% of that peptide's response range
T4 construct: purchased 300-04
Protocol: as §1, §2, §3, §4, §5, §6, §7, §8, §9, §10, §11

Exodus-2 = target: T5, Exodus-2 (Homo sapiens, UniProt O00585); experiment: Micro-array analysis of chemokine binding peptides: Exodus-2
T5 construct: purchased 300-35
T5 sequence (O00585 24-134): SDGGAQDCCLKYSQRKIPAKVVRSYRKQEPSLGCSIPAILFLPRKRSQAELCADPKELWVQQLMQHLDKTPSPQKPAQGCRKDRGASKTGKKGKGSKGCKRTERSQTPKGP
Protocol: as §1, §2, §3, §4, §5, §6, §7, §8, §9, §10, §11

BCA-1 = target: T6, BCA-1 (Homo sapiens, UniProt O43927); experiment: Micro-array analysis of chemokine binding peptides: BCA-1
T6 construct: purchased 300-47
T6 sequence (O43927 23-109): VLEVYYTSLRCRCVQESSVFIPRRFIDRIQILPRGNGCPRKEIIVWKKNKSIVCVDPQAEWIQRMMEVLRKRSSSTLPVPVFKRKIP
Protocol: as §1, §2, §3, §4, §5, §6, §7, §8, §9, §10, §11

GRO-β = target: T7, GRO-β (Homo sapiens, UniProt P19875); experiment: Micro-array analysis of chemokine binding peptides: GRO-β
T7 construct: purchased 300-39
T7 sequence (P19875 35-107): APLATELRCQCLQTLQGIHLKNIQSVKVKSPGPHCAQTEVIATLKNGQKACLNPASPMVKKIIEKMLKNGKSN
Protocol: as §1, §2, §3, §4, §5, §6, §7, §8, §9, §10, §11

IP-10 = target: T8, IP-10 (Homo sapiens, UniProt P02778); experiment: Micro-array analysis of chemokine binding peptides: IP-10
T8 construct: purchased 300-12
T8 sequence (P02778 22-98): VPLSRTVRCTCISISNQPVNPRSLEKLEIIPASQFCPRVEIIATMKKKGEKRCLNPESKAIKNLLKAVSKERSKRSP
Protocol: as §1, §2, §3, §4, §5, §6, §7, §8, §9, §10, §11

IL-8 = experiment: Micro-array analysis of chemokine binding peptides: IL-8
Protocol: as §1, §2, §3, §4, §5, §6, §7, §8, §9, §10, §11

Fractalkine = target: T9, Fractalkine (Homo sapiens, UniProt P78423); experiment: Micro-array analysis of chemokine binding peptides: Fractalkine
T9 construct: purchased 300-31
T9 sequence (P78423 25-100 limits assumed): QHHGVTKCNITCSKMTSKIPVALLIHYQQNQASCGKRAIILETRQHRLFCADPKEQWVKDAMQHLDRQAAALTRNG
Protocol: as §1, §2, §3, §4, §5, §6, §7, §8, §9, §10, §11

Mig = target: T10, Mig (Homo sapiens, UniProt Q07325); experiment: Micro-array analysis of chemokine binding peptides: Mig
T10 construct: purchased 300-26
T10 sequence (Q07325 23-125): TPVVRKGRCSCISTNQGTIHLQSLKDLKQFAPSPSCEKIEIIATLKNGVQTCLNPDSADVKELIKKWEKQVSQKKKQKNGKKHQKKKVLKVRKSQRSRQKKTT
Protocol: as §1, §2, §3, §4, §5, §6, §7, §8, §9, §10, §11

Lymphotactin = target: T11, Lymphotactin (Homo sapiens, UniProt P47992); experiment: Micro-array analysis of chemokine binding peptides: Lymphotactin
T11 construct: purchased 300-20
T11 sequence (P47992 22-114): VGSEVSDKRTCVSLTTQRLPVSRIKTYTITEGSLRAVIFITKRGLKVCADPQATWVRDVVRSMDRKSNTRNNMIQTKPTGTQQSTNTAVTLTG
Protocol: as §1, §2, §3, §4, §5, §6, §7, §8, §9, §10, §11

MCP-2 = target: T12, MCP-2 (Homo sapiens, UniProt P80075); experiment: Micro-array analysis of chemokine binding peptides: MCP-2; conditions: limit = start of the upper 75% of that peptide's response range
T12 construct: purchased 300-15
T12 sequence (P80075 24-99): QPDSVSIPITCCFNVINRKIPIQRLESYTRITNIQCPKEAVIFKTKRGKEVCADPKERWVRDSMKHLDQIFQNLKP
Protocol: as §1, §2, §3, §4, §5, §6, §7, §8, §9, §10, §11

Eotaxin = target: T13, Eotaxin (Homo sapiens, UniProt P51671); experiment: Micro-array analysis of chemokine binding peptides: Eotaxin
T13 construct: purchased 300-21
Protocol: as §1, §2, §3, §4, §5, §6, §7, §8, §9, §10, §11

Eotaxin 3 = target: T14, Eotaxin 3 (Homo sapiens, UniProt Q9Y258); experiment: Micro-array analysis of chemokine binding peptides: Eotaxin 3
T14 construct: purchased 300-48
T14 sequence (Q9Y258 24-94): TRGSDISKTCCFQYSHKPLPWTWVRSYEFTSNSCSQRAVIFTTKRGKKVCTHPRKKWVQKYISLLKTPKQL
Protocol: as §1, §2, §3, §4, §5, §6, §7, §8, §9, §10, §11

SDF1-β = target: T15, SDF1-β (Homo sapiens, UniProt P48061); experiment: Micro-array analysis of chemokine binding peptides: SDF1-β
T15 construct: purchased 300-28b
Protocol: as §1, §2, §3, §4, §5, §6, §7, §8, §9, §10, §11

SDF1-α = target: T16, SDF1-α (Homo sapiens, UniProt P48061); experiment: Micro-array analysis of chemokine binding peptides: SDF1-α
T16 construct: purchased 300-28a
Protocol: as §1, §2, §3, §4, §5, §6, §7, §8, §9, §10, §11

I-309 = target: T17, I-309 (Homo sapiens, UniProt P22362); experiment: Micro-array analysis of chemokine binding peptides: I-309
T17 construct: purchased 300-37
T17 sequence (P22362 24-96): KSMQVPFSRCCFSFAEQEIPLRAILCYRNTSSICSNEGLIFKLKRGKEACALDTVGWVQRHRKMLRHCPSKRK
Protocol: as §1, §2, §3, §4, §5, §6, §7, §8, §9, §10, §11

Eotaxin 2 = target: T18, Eotaxin 2 (Homo sapiens, UniProt O00175); experiment: Micro-array analysis of chemokine binding peptides: Eotaxin 2
T18 construct: purchased 300-33
T18 sequence (O00175 27-119): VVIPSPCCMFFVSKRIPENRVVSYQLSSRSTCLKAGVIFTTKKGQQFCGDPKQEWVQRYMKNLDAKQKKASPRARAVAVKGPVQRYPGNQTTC
Protocol: as §1, §2, §3, §4, §5, §6, §7, §8, §9, §10, §11

I-TAC = target: T19, I-TAC (Homo sapiens, UniProt O14625); experiment: Micro-array analysis of chemokine binding peptides: I-TAC
T19 construct: purchased 300-46
T19 sequence (O14625 22-94): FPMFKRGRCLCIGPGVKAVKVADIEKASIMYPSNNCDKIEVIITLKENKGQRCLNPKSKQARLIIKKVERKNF
Protocol: as §1, §2, §3, §4, §5, §6, §7, §8, §9, §10, §11

T13 sequence (P51671 24-97): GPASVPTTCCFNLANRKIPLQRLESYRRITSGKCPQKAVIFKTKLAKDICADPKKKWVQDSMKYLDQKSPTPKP
T4 sequence (P13500 24-99): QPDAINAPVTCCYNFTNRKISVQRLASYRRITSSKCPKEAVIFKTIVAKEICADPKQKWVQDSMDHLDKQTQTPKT
T3 sequence (Q99616 17-98): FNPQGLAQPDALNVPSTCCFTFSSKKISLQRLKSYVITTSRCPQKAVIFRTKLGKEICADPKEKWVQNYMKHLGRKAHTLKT
T16 sequence (P48061 22-89 limits assumed): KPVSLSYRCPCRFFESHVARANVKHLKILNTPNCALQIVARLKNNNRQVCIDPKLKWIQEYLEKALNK
IL-8, sequence (P10145 28-99 limits assumed): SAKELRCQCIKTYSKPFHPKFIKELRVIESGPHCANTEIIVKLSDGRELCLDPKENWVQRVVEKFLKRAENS
T15 sequence (P48061 22-93): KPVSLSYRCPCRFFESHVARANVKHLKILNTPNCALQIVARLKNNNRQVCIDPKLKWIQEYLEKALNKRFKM

TKCOKE (TKCQKE; listed as Homo sapiens) [Ph-p20]
binding to RANTES, stated in words (RANTES): bound
binding to TECK, stated in words (TECK): bound
binding to MCP-4 with relatively high affinity (Relative Fluorescence Units) (MCP-4): > 15,000 RFU
binding to MCP-1 with relatively high affinity (Relative Fluorescence Units) (MCP-1): > 15,000 RFU
binding to Exodus-2, stated in words (Exodus-2): bound
binding to BCA-1, stated in words (BCA-1): bound
binding to GRO-β, stated in words (GRO-β): bound
binding to IP-10, stated in words (IP-10): bound
binding to IL-8, stated in words (IL-8): bound
binding to Fractalkine, stated in words (Fractalkine): bound
binding to Mig, stated in words (Mig): bound
binding to Lymphotactin, stated in words (Lymphotactin): bound
binding to MCP-2 with relatively high affinity (Relative Fluorescence Units) (MCP-2): > 15,000 RFU
binding to Eotaxin, stated in words (Eotaxin): bound
binding to Eotaxin 3, stated in words (Eotaxin 3): bound

WVFGAAACK [Ph-p8.6]
binding to TECK, stated in words (TECK): bound
binding to SDF1-β, stated in words (SDF1-β): bound
binding to SDF1-α, stated in words (SDF1-α): bound
binding to MCP-4 with relatively high affinity (Relative Fluorescence Units) (MCP-4): > 15,000 RFU
binding to I-309, stated in words (I-309): bound
binding to MCP-1 with relatively high affinity (Relative Fluorescence Units) (MCP-1): > 15,000 RFU
binding to Eotaxin 2, stated in words (Eotaxin 2): bound
binding to Exodus-2, stated in words (Exodus-2): bound
binding to BCA-1, stated in words (BCA-1): bound
binding to IP-10, stated in words (IP-10): bound
binding to I-TAC, stated in words (I-TAC): bound
binding to Mig, stated in words (Mig): bound
binding to Lymphotactin, stated in words (Lymphotactin): bound
binding to MCP-2 with relatively high affinity (Relative Fluorescence Units) (MCP-2): > 15,000 RFU
binding to Eotaxin, stated in words (Eotaxin): bound
binding to Eotaxin 3, stated in words (Eotaxin 3): bound
